Test results published in the supplement of paper PMC12783771.
± gives the standard deviation of the averaged measurements.

B1: library; a variant is named by its letters at X, in order (parent)
chain: MNIQIGELAKRTACPVVTIRFYEQEGLLPPPGRSRGNFRLYGEEHVERLQFIRHCRSLDMPLSXVRTLLSYRKRPDQDCGEVXMLLDEHXRQVESRIGALLELXHXLVELREACSGARPAQSCGILQGLSDCVCDTRGTTAHXSD

How the values were obtained:
[1] = variants of: B1; assay: sfGFP reporter fluorescence (15 h) (µM FITC); higher = higher leak; conditions: library round: Round 3b; ligand: none
Procedure: (§1)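 Cell-free biosensing: 1 µL Echo-assembled CFE reactions with linear PbrR variant templates (5 nM) and pPbrR-sfGFP reporter, with 1 µM Pb, 30 µM Zn or no ligand; endpoint sfGFP fluorescence after 15 h at 30 °C calibrated as µM FITC. Round 3b rational combinatorial PbrR mutants; 3 biological replicates.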

[2] = variants of: B1; assay: sfGFP reporter fluorescence (15 h) (µM FITC); higher = stronger transcriptional activation; conditions: library round: Round 3b
Procedure: as §1

| Variant | sfGFP reporter fluorescence [1] | sfGFP reporter fluorescence ([2]; ligand: 1 µM Pb) | sfGFP reporter fluorescence ([2]; ligand: 30 µM Zn) |
| --- | --- | --- | --- |
| KFATAP | 0.0501 ± 0.0052 | 0.3845 ± 0.0014 | 0.0524 ± 0.00067 |
| KFATAR | 0.0492 ± 0.0024 | 0.462 ± 0.068 | 0.0554 ± 0.0012 |
| KFATHR | 0.0517 ± 0.0024 | 0.705 ± 0.055 | 0.171 ± 0.012 |
| KFATHT | 0.0512 ± 0.0033 | 0.558 ± 0.011 | 0.137 ± 0.013 |
| KFATHP | 0.0523 ± 0.0059 | 0.476 ± 0.041 | 0.112 ± 0.011 |
| DFATAP | 0.0454 ± 0.0046 | 0.048 ± 0.0038 | 0.0454 ± 0.0051 |
| DFATAT | 0.0428 ± 0.0034 | 0.0475 ± 0.0011 | 0.0455 ± 0.0051 |
| DFATAR | 0.0431 ± 0.00051 | 0.05286 ± 0.00019 | 0.0448 ± 0.0015 |
| DFATHT | 0.0408 ± 0.0051 | 0.0491 ± 0.0032 | 0.0448 ± 0.0049 |
| DFATHR | 0.0436 ± 0.0022 | 0.053 ± 0.0037 | 0.0482 ± 0.0037 |
| DFATET | 0.0435 ± 0.0019 | 0.0466 ± 0.0012 | 0.0451 ± 0.001 |
| DFATEP | 0.041 ± 0.0024 | 0.0428 ± 0.0007 | 0.0444 ± 0.0036 |
| DFATER | 0.044 ± 0.0013 | 0.0474 ± 0.0018 | 0.0469 ± 0.0034 |
| KFATEP | 0.0465 ± 0.0032 | 0.442 ± 0.0057 | 0.0564 ± 0.0029 |
| KFATET | 0.0469 ± 0.0028 | 0.404 ± 0.017 | 0.0606 ± 0.0013 |
| KFATER | 0.0457 ± 0.0041 | 0.594 ± 0.024 | 0.0571 ± 0.014 |
| DFAVAP | 0.0435 ± 0.0045 | 0.0535 ± 0.0046 | 0.0484 ± 0.0012 |
| DFAVAT | 0.0442 ± 0.0011 | 0.0558 ± 0.0015 | 0.0449 ± 0.0022 |
| DFAVAR | 0.0466 ± 0.0033 | 0.0575 ± 0.0018 | 0.0492 ± 0.0035 |
| KFAVAT | 0.0465 ± 0.0014 | 0.356 ± 0.02 | 0.057 ± 0.0017 |
| KFAVAR | 0.0482 ± 0.0037 | 0.398 ± 0.028 | 0.0563 ± 0.00097 |
| KFAKHT | 0.0669 ± 0.0082 | 0.777 ± 0.035 | 0.299 ± 0.047 |
| KFAKHR | 0.0685 ± 0.0035 | 0.843 ± 0.073 | 0.33 ± 0.014 |
